From patent US20250154231A1 come the findings set out here.

Read-outs that look alike come from different tables or passages of the source.

Common to all, as to test: cell-based or functional assay
Test [1] addresses SARS-CoV-2 spike (S) protein, Omicron BA.2.75 (SARS-CoV-2) (UniProt P0DTC2).
Test [2] has as its target SARS-CoV-2 Omicron BA.1 spike (S) protein of the live isolate (SARS-CoV-2) (UniProt P0DTC2).
For test [3], the target named is SARS-CoV-2 spike (S) protein, Omicron BA.3 (SARS-CoV-2) (UniProt P0DTC2).
In test [4] the target is SARS-CoV-2 spike (S) protein, Omicron BA.1.1 (SARS-CoV-2) (UniProt P0DTC2).
For test [5], the target named is SARS-CoV-2 Omicron BA.2 spike (S) protein (SARS-CoV-2) (UniProt P0DTC2).
Test [6] addresses SARS-CoV-2 Gamma spike (S) protein (SARS-CoV-2) (UniProt P0DTC2).
The target in test [7] is SARS-CoV-2 Beta spike (S) protein (SARS-CoV-2) (UniProt P0DTC2).
Test [8] has as its target SARS-CoV-2 Victoria spike (S) protein (SARS-CoV-2) (UniProt P0DTC2).
The target in test [9] is SARS-CoV-2 Omicron BA.1.1 spike (S) protein (SARS-CoV-2) (UniProt P0DTC2).
The target in test [10] is SARS-CoV-2 spike (S) protein, Victoria strain (SARS-CoV-2) (UniProt P0DTC2).
Test [11] concerns the target SARS-CoV-2 Delta spike (S) protein (SARS-CoV-2) (UniProt P0DTC2).
Test [12] has as its target SARS-CoV-2 spike (S) protein, Omicron BA.4.6 (SARS-CoV-2) (UniProt P0DTC2).
For test [13], the target named is SARS-CoV-2 spike (S) protein, Omicron BA.1 (SARS-CoV-2) (UniProt P0DTC2).
Test [14] addresses SARS-CoV-2 spike (S) protein, Omicron BA.4/5 (SARS-CoV-2) (UniProt P0DTC2).
For test [15], the target named is SARS-CoV-2 spike (S) protein, Omicron BA.2 (SARS-CoV-2) (UniProt P0DTC2).
For test [16], the target named is SARS-CoV-2 Alpha spike (S) protein (SARS-CoV-2) (UniProt P0DTC2).
For test [17], the target named is SARS-CoV-2 spike (S) protein, Omicron BJ.1 (SARS-CoV-2) (UniProt P0DTC2).
Test [18] concerns the target SARS-CoV-2 spike (S) protein, Omicron BA.2.75.2 (SARS-CoV-2) (UniProt P0DTC2).
Test [19] addresses SARS-CoV-2 spike (S) protein, Victoria strain (SARS-CoV-2) (UniProt P0DTC2). The source holds these as a separate data set.
In test [20] the target is SARS-CoV-2 spike (S) protein, Omicron BA.4.6 (SARS-CoV-2) (UniProt P0DTC2). This is another data set of the same source.
The target of test [21] is SARS-CoV-2 spike (S) protein, Omicron BA.4/5 (SARS-CoV-2) (UniProt P0DTC2). This is another data set of the same source.
Test [22] addresses SARS-CoV-2 spike (S) protein, Omicron BA.2.3.20 (SARS-CoV-2) (UniProt P0DTC2).
Test [23] addresses SARS-CoV-2 spike (S) protein, Omicron BA.2 (SARS-CoV-2) (UniProt P0DTC2). The source holds these as a separate data set.
For test [24], the target named is SARS-CoV-2 spike (S) protein, Omicron BA.2.75 (SARS-CoV-2) (UniProt P0DTC2). The source holds these as a separate data set.
Test [25] addresses SARS-CoV-2 Omicron BA.1.1 spike (S) protein, pseudovirus construct (SARS-CoV-2) (UniProt P0DTC2).
The target in test [26] is SARS-CoV-2 Omicron BA.1 spike (S) protein, pseudovirus construct (SARS-CoV-2) (UniProt P0DTC2).
Test [27] deals with SARS-CoV-2 Omicron BA.3 spike (S) protein, pseudovirus construct (SARS-CoV-2) (UniProt P0DTC2).
Test [28] has as its target SARS-CoV-2 Omicron BA.2 spike (S) protein, pseudovirus construct (SARS-CoV-2) (UniProt P0DTC2).

Sequence of Known Antibody D (AZD8895) (VH): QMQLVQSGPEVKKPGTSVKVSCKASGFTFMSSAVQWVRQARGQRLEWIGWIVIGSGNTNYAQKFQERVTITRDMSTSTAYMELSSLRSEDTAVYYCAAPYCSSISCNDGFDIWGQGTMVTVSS
Sequence of Known Antibody D (AZD8895) (VL): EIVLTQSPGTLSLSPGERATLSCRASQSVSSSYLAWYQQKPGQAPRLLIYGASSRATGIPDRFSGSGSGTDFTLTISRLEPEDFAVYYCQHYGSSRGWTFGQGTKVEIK

As for ADG10 (antibody), the pseudovirus neutralisation IC50 in test [1] is over 10 µg/mL; in [3], over 10 µg/mL; in test [4], over 10 µg/mL; in test [10], 0.007 µg/mL; in test [13], over 10 µg/mL; in test [14] it was over 10 µg/mL. Moreover, the pseudovirus neutralisation IC50 in test [15] is over 10 µg/mL. Further, the IC50, authentic virus neutralization is over 10 µg/mL in [2]; over 10 µg/mL in [5]; 0.003 µg/mL in test [6]; 0.011 µg/mL in test [7]; 0.006 µg/mL in test [8]; over 10 µg/mL in test [9]. Besides, the IC50, authentic virus neutralization in test [11] is 0.026 µg/mL; in [16], 0.01 µg/mL. The IC50, pseudoviral neutralization was over 10 µg/mL in test [3]; over 10 µg/mL in test [4]; 0.007 µg/mL in test [10]; over 10 µg/mL in test [12]; over 10 µg/mL in [13]; over 10 µg/mL in [14]. Also, the IC50, pseudoviral neutralization in test [15] was over 10 µg/mL.
For AZD7442, the pseudovirus neutralisation IC50 in [1] worked out at 0.017 µg/mL; in test [3] it was 0.065 µg/mL; in test [4], 0.806 µg/mL; in [10], 0.001 µg/mL; in test [13], 0.232 µg/mL; in test [14], 0.065 µg/mL. This substance returned a pseudovirus neutralisation IC50 in test [15] of 0.008 µg/mL. Also, the IC50, pseudoviral neutralization in test [3] is 0.065 µg/mL; in test [4] it was 0.806 µg/mL; in test [10] it was 0.001 µg/mL; in test [12], over 10 µg/mL; in [13] it was 0.232 µg/mL; in test [14] it was 0.065 µg/mL. In addition, in test [15], the IC50, pseudoviral neutralization stood at 0.008 µg/mL.
Consider “AZD7442 (a combination of AZD8895 and AZD1061)”, for which the IC50, pseudoviral neutralization in [17] is 2.73 µg/mL; in test [18] it was over 10 µg/mL; in test [19], 0.001 µg/mL; in test [20] it was over 10 µg/mL; in [21], 0.065 µg/mL; in [22], 0.025 µg/mL. For the same substance, the IC50, pseudoviral neutralization in test [23] was found to be 0.008 µg/mL; in test [24] it was 0.017 µg/mL.
With AZD7442 (antibody), the IC50, authentic virus neutralization in [2] is 0.273 µg/mL; in test [5] it was 0.052 µg/mL; in [6], 0.006 µg/mL; in test [7], 0.012 µg/mL; in test [8], 0.009 µg/mL; in [9] it was 3.82 µg/mL. The IC50, authentic virus neutralization amounted to 0.005 µg/mL in test [11] and 0.007 µg/mL in test [16].
For Known Antibody A (REGN 10987), the IC50 (ug/ml), pseudovirus was 0.002 µg/mL in test [8]; over 10 µg/mL in test [25]; over 10 µg/mL in [26]; over 10 µg/mL in [27]; 0.616 µg/mL in [28].
With Known Antibody B (REGN 10933), the IC50 (ug/ml), pseudovirus is 0.001 µg/mL in test [8]; over 10 µg/mL in test [25]; over 10 µg/mL in [26]; over 10 µg/mL in [27]; over 10 µg/mL in [28].
As for Known Antibody C (AZD1061), the IC50 (ug/ml), pseudovirus in test [8] is 0.002 µg/mL; in test [25], over 10 µg/mL; in test [26], 0.308 µg/mL; in test [27], 0.019 µg/mL; in [28], 0.008 µg/mL.
Consider Known Antibody D (AZD8895), for which the IC50 (ug/ml), pseudovirus was 0.001 µg/mL in test [8]; 0.1 µg/mL in test [25]; 0.246 µg/mL in test [26]; over 10 µg/mL in [27]; 1.33 µg/mL in test [28].
Turning to Known Antibody F (ADG10), the IC50 (ug/ml), pseudovirus in [8] is 0.007 µg/mL; in [25] it was over 10 µg/mL; in test [26] it was over 10 µg/mL; in test [27] it was over 10 µg/mL; in [28] it was over 10 µg/mL.
For the substance Known Antibody G (ADG20), the IC50 (ug/ml), pseudovirus in test [8] is 0.003 µg/mL; in test [25] it was 0.253 µg/mL; in test [26] it was 0.348 µg/mL; in test [27], over 10 µg/mL; in test [28], over 10 µg/mL.
Regarding Known Antibody H (ADG30), the IC50 (ug/ml), pseudovirus in test [8] was 0.014 µg/mL; in test [25], over 10 µg/mL; in [26], over 10 µg/mL; in test [27], over 10 µg/mL; in test [28], over 10 µg/mL.
On to Known Antibody I (Ly-CoV-555), for which the IC50 (ug/ml), pseudovirus in test [8] was 0.002 µg/mL; in test [25] it was over 10 µg/mL; in test [26] it was over 10 µg/mL; in test [27] it was over 10 µg/mL; in test [28], over 10 µg/mL.
In the case of Known Antibody J (Ly-CoV16), the IC50 (ug/ml), pseudovirus in test [8] was 0.014 µg/mL; in test [25], over 10 µg/mL; in test [26] it was over 10 µg/mL; in [27], over 10 µg/mL; in test [28], over 10 µg/mL.
As for Known Antibody K (S309), the IC50 (ug/ml), pseudovirus in [8] was 0.587 µg/mL; in test [25] it was 0.138 µg/mL; in [26], 0.094 µg/mL; in test [27], 0.228 µg/mL; in [28], 0.638 µg/mL.
Regarding LY-CoV1404 (bebtelovimab) (antibody), the IC50, pseudoviral neutralization in test [17] is over 10 µg/mL; in test [18], 0.002 µg/mL; in test [19], 0.001 µg/mL; in test [20], 0.001 µg/mL; in test [21], 0.002 µg/mL; in test [22], 0.018 µg/mL. Moreover, the IC50, pseudoviral neutralization was found to be 0.001 µg/mL in test [23] and 0.002 µg/mL in [24].
Consider Ly-CoV-555 (antibody), for which the IC50, authentic virus neutralization in test [2] was over 10 µg/mL; in test [5], over 10 µg/mL; in test [6] it was over 10 µg/mL; in test [7], over 10 µg/mL; in test [8], 0.006 µg/mL; in [9], over 10 µg/mL. For the same substance, the IC50, authentic virus neutralization in test [11] stood at 8.31 µg/mL; in [16] it was 0.009 µg/mL.
